“Also recorded” adds a separate entry of the source.
What was measured:
Assay type in all cases: cell-based, human
iPSC3.4 = experiment: Affymetrix microarray analysis of transcript levels during DE formation; details: 3-day activin treated vs undifferentiated cultures, label = gene symbol of the transcript
Procedure: (§1) For microarray analysis, RNA was isolated from undifferentiated and 3-day activin treated hESC and iPSC cultures and used create target DNA for hybridization to Affymetrix Human 1.0 Gene ST Arrays using standard procedures (Affymetrix, Santa Clara, CA). Independent biological triplicates were performed for each cell line and condition. Affymetrix microarray Cel files were subjected to Robust Multichip Average (RMA) normalization in GeneSpring 10.1. Probe sets were first filtered for those that are overexpressed or underexpressed and then subjected to statistical analysis for differential expression by 3 fold or more between undifferentiated and differentiated cultures with p<0.05 using the Students T-test. Log 2 gene expression ratios were then subjected to hierachical clustering using the standard correlation distance metric as implemented in GeneSpring.

hESC-H9 = experiment: as above; details: 3-day activin treated vs undifferentiated cultures, label = gene symbol of the transcript
Procedure: (§2) FIGS. 6a and 6b illustrate exemplary embodiments in accordance with the present invention, depicting characterization of DE formation from hESC and iPSC lines by immuno-fluorescence (IF) and Microarray analysis. (a) Undifferentiated hESCs stained with the pluripotency marker OCT4 (green) were treated for 3 days with ActivinA. […] (b) Transcriptional profile of DE induction. hESC-H9 and iPSC lines 3.5, 3.6 and 3.12 were analyzed before and after DE formation (activin differentiation) by Affymetrix DNA microarray analysis.
as §1

iPSC line 3.12 = experiment: as above; details: 3-day activin treated vs undifferentiated cultures, label = gene symbol of the transcript
Procedure: as §2, §1

iPSC-3.5 = experiment: Hindgut spheroid formation from iPSC-3.5 definitive endoderm after growth factor treatment; details: 500 ng/ml; for Average # organoids per well / Total # organoids (# organoids/wells counted): iPSC-3.5 definitive endoderm
Procedure: (§3) Differentiation of PSCs into Definitive Endoderm (DE). Differentiation into Definitive Endoderm was carried out as previously described. Briefly, a 3 day ActivinA (R&D systems) differentiation protocol was used. Cells were treated with ActivinA (100 ng/ml) for three consecutive days in RPMI 1640 media (Invitrogen) with increasing concentrations of 0%, 0.2%, 2% HyClone defined FBS (dFBS) (Thermo Scientific).
(§4) The following tables illustrate the effects of growth factor treatment of hESCs and iPSCs. Generation of hindgut spheroids was tracked for (Table 1A) days 2-5 following growth factor treatment for H9 hESCs or (Table 1B) days 2-4 of growth factor treatment for iPSCs. Definitive endoderm was treated with either 500 ng/ml of FGF4 alone or 500 ng/ml of FGF4+Wnt3a. For both HESCs and iPSCs, hindgut spheroids formed much more robustly under FGF4+Wnt3a conditions. […] Over the course of 4 days, FGF4+Wnt3a treated H9 endoderm generated an average of 4.5 fold more spheroids than that treated with FGF4 alone.
(§5) Generation of hindgut spheroids was tracked for days 2-5 of growth factor treatment (H9 hESCs, Table 1A) or days 2-4 of growth factor treatment (iPSCs, Table 1B) for endoderm being given either 500 ng/ml FGF4 alone or 500 ng/ml FGF4+Wnt3a. In both cell lines, hindgut spheroids were much more robustly generated in FGF4+Wnt3a conditions. Over the course of 4 days, FGF4+Wnt3a treated H9 endoderm generated an average of 4.5 fold more spheroids than FGF4 treated alone.
(§6) Directed differentiation into hindgut and intestinal organoids. After differentiation into definitive endoderm, cells were incubated in 2% dFBS-DMEM/F12 with either 50 or 500 ng/ml FGF4 and/or 50 or 500 ng/ml Wnt3a (R&D Systems) for 2-4 days. After 2 days with treatment of growth factors, 3-dimensional floating spheroids were present in the culture. 3-dimensional spheroids were transferred into an in vitro system previously described to support intestinal growth and differentiation. Briefly, spheroids were embedded in Matrigel (BD Bioscience #356237) containing 500 ng/ml R-Spondin1 (R&D Systems), 100 ng/ml Noggin (R&D Systems) and 50 ng/ml EGF (R&D Systems). After the Matrigel solidified, media (Advanced DMEM/F12 (Invitrogen) supplemented with L-Glutamine, […], N2 supplement (R&D Systems), B27 supplement (Invitrogen), and Pen/Strep containing growth factors was overlaid and replaced every 4 days.

H9 hESCs = experiment: Hindgut spheroid formation from hESC-H9 definitive endoderm after growth factor treatment; details: for Average # organoids per well / Total # organoids (# organoids/wells counted): hESC-H9 definitive endoderm
Procedure: as §3, §4, §5, §6

[1] = test system: H9-HES cells differentiated into definitive endoderm; experiment: Posteriorization of definitive endoderm: foregut (ALB, PDX1) and hindgut (CDX2) marker expression by RT-qPCR and immunofluorescence; details: DE treated 24-48 hours; up to 500 ng/ml; RT-qPCR relative to no growth factor control
Procedure: Differentiation of DE in Permissive Media (Differentiation Protocol for FIG. 1). After differentiation into definitive endoderm, cells were incubated in DMEM/F12 plus 2% defined fetal bovine serum (dFBS) with either 0, 50, or 500 ng/ml of FGF4 and/or 0, 50, or 500 ng/ml of Wnt3a (R&D Systems) for 6, 48, or 96 hours. Cultures were then grown in permissive media consisting of DMEM plus 10% fetal bovine serum (FBS) for an additional 7 days.
FIGS. 1a through 1d illustrate exemplary embodiments of the present invention. FGF4 and Wnt3a act synergistically in a temporal and dose-dependent manner to specify stable posterior endoderm fate. ActivinA (100 ng/ml) was used to differentiate H9-HES cells into definitive endoderm (DE). DE was treated with the posteriorizing factors FGF4 (50, 500 ng), Wnt3a (50, 500 ng) or both for 6, 48 or 96 hours. Cells were then cultured in a permissive medium without growth factors for an additional seven days and analyzed for expression of foregut markers (ALB, PDX1) and the hindgut marker (CDX2) by RT-qPCR (a) and immunofluorescence (b-d). FGF4/Wnt-mediated changes in marker expression in (a) is relative to 3-day activin treated DE cultures that were grown for identical lengths of time in the absence of FGF4 or Wnt3a (control). […] Error bars denote standard deviation of triplicates. Significance is shown by; * (p<0.05), ^ (p<0.001), # (p<0.0001).
FIGS. 7a and 7b illustrate exemplary embodiments in accordance with the present invention, depicting time and concentration dependent induction of CDX2 by FGF4 and Wnt3a. (a) FGF4 and Wnt3a up-regulate CDX2 in a concentration dependant manner. 3-day ActivinA treated hESCs were treated for 48 hours with Wnt3a at 50 ng/ml or 500 ng/ml or FGF4 at 50 ng/ml or 500 ng/ml, or increasing concentrations of FGF4+Wnt3a. Cells were analyzed after 48 hours of treatment. […] CDX2 expression was normalized to the internal control beta-tubulin, and is shown relative to a 48 hour control cultured in the absence of growth factors. (b) FGF4 and Wnt3a up-regulate CDX2 in a time dependant manner. 48 hours of exposure to FGF4+Wnt3a was required for the most robust induction of CDX2. All time points shown are set relative to a 0 hour no growth factor control. 500 ng/ml of FGF4, Wnt3a or FGF4+Wnt3a was used for all time points. Note that 24 hour and 48 controls, in the absence of growth factors, show a significant and spontaneous up-regulation of CDX2. Error bars denote standard deviation of triplicates. Significance is shown by; * (p<0.05)
RNA was isolated using the Nucleospin II RNA isolation kit (Clonetech). […] Finally, qPCR was carried out using Quantitect SybrGreen MasterMix (Qiagen) on a Chromo4 Real-Time PCR (BioRad). […]

[2] = 500 ng/ml, 2 days (48 h) of GF treatment
[3] = 500 ng/ml, 3 days (72 h) of GF treatment
[4] = 500 ng/ml, 4 days (96 h) of GF treatment
[5] = 500 ng/ml, 5 days (120 h) of GF treatment

DKK1 was tested, and the “[Diff'd-iPSC3.4] vs [Undiff d-iPSC3.4] (folds), variation of transcript level during DE formation” value (iPSC3.4) was 7.27 folds, the “DIFF'D-H9] VS [IFF'D-H9] (folds), variation of transcript level during DE formation” value (hESC-H9) was 9.66 folds and the “[DIFF'D-IPSC3.12] VS [IFF'D-IPSC3.12] (folds), variation of transcript level during DE formation” value (iPSC line 3.12) was 6.27 folds.

With NPPB the “[Diff'd-iPSC3.4] vs [Undiff d-iPSC3.4] (folds), variation of transcript level during DE formation” value (iPSC3.4) was 3.57 folds, the “DIFF'D-H9] VS [IFF'D-H9] (folds), variation of transcript level during DE formation” value (hESC-H9) was 2.88 folds and the “[DIFF'D-IPSC3.12] VS [IFF'D-IPSC3.12] (folds), variation of transcript level during DE formation” value (iPSC line 3.12) was 3.62 folds.

With NODAL the “[Diff'd-iPSC3.4] vs [Undiff d-iPSC3.4] (folds), variation of transcript level during DE formation” value (iPSC3.4) was 5.00 folds, the “DIFF'D-H9] VS [IFF'D-H9] (folds), variation of transcript level during DE formation” value (hESC-H9) was 5.66 folds and the “[DIFF'D-IPSC3.12] VS [IFF'D-IPSC3.12] (folds), variation of transcript level during DE formation” value (iPSC line 3.12) was 5.77 folds.

B1: Wnt3a: soluble Wnt ligand (R&D Systems), growth factor known to posteriorize endoderm (protein, UniProt P56704 19-352, looked up)
Protein Wnt-3a: SYPIWWSLAVGPQYSSLGSQPILCASIPGLVPKQLRFCRNYVEIMPSVAEGIKIGIQECQHQFRGRRWNCTTVHDSLAIFGPVLDKATRESAFVHAIASAGVAFAVTRSCAEGTAAICGCSSRHQGSPGKGWKWGGCSEDIEFGGMVSREFADARENRPDARSAMNRHNNEAGRQAIASHMHLKCKCHGLSGSCEVKTCWWSQPDFRAIGDFLKDKYDSASEMVVEKHRESRGWVETLRPRYTYFKVPTERDLVYYEASPNFCEPNPETGSFGTRDRTCNVSSHGIDGCDLLCCGRGHNARAERRREKCRCVFHWCCYVSCQECTRVYDVHTCK
B1 was tested, and the spheroid formation (iPSC-3.5; iPSC definitive endoderm) was “never formed spheroids”, the “in vitro gut-tube morphogenesis / spheroid formation” value (H9 hESCs; hESC definitive endoderm, 500 ng/ml) was “never observed; also recorded: never formed spheroids; also recorded: not observed” and the “induction of hindgut marker CDX2 expression / posterior fate” value [1] was “neither factor alone was sufficient to robustly promote a posterior fate; also recorded: modest changes in CDX2 expression”.

B2: FGF4: fibroblast growth factor 4, soluble growth factor (R&D Systems) known to posteriorize endoderm (protein, UniProt P08620 31-206, looked up)
Fibroblast growth factor 4: APTAPNGTLEAELERRWESLVALSLARLPVAAQPKEAAVQSGAGDYLLGIKRLRRLYCNVGIGFHLQALPDGRIGGAHADTRDSLLELSPVERGVVSIFGVASRFFVAMSSKGKLYGSPFFTDECTFKEILLPNNYNAYESYKYPGMFIALSKNGKTKKGNRVSPTMKVTHFLPRL
In the case of B2, the “Average # organoids per well” value (iPSC-3.5; 2 days (48 h) of GF treatment) is reported as 0, the “Total # organoids (# organoids/wells counted)” value (iPSC-3.5; 2 days (48 h) of GF treatment) is reported as 0/4 and the “Average # organoids per well” value (iPSC-3.5; 3 days (72 h) of GF treatment) is reported as 2.5. For the same molecule, the “Total # organoids (# organoids/wells counted)” value (iPSC-3.5; 3 days (72 h) of GF treatment) was 10/4, the “Average # organoids per well” value (iPSC-3.5; 4 days (96 h) of GF treatment) was 3.5 and the “Total # organoids (# organoids/wells counted)” value (iPSC-3.5; 4 days (96 h) of GF treatment) was 14/4. The “CDX2 staining of spheroids / 3D structures” value (H9 hESCs; CDX2 immunostaining of treated DE cultures) was “weakly CDX2+”, the “fold fewer spheroids generated (versus FGF4+Wnt3a treated cultures)” value (H9 hESCs; Table 1A, H9 hESC definitive endoderm) was 4-10 fold and the “Average # organoids per well” value (H9 hESCs; [2]) was 0. For the same molecule, the “Total # organoids (# organoids/wells counted)” value (H9 hESCs; [2]) was 0/5, the “Average # organoids per well” value (H9 hESCs; [3]) was 0 and the “Total # organoids (# organoids/wells counted)” value (H9 hESCs; [3]) was 0/5. For the same molecule, the “Average # organoids per well” value (H9 hESCs; [4]) was 8.8, the “Total # organoids (# organoids/wells counted)” value (H9 hESCs; [4]) was 44/5 and the “Average # organoids per well” value (H9 hESCs; [5]) was 4.75. For the same molecule, the “Total # organoids (# organoids/wells counted)” value (H9 hESCs; [5]) was 19/4 and the “induction of hindgut marker CDX2 expression / posterior fate” value [1] was “neither factor alone was sufficient to robustly promote a posterior fate; also recorded: modest changes in CDX2 expression”.

Reference: patent US12258584B2, “Methods and systems for converting precursor cells into intestinal tissues through directed differentiation” (Children's Hospital Medical Center, priority 2010, dated 2025)
